Among the data in paper PMC9424271, “Invariant surface glycoprotein 65 of Trypanosoma brucei is a complement C3 receptor” (Nature Communications, 2022) are Kd, koff and kon values, retold here.

Assay [1] deals with ISG65 1125G (residues 24-385) with C-terminal AviTag and His10 tag, biotinylated (T. brucei EATRO1125). The assay can be described thus: SPR; biotinylated ISG65G (CHO, ~800 RU) on a streptavidin chip (SA); C3b and C3c from 500 nM in two-fold dilutions to 15.6 nM; 30 ul/min, 25 C, 20 mM HEPES pH 7.4, 150 mM NaCl, 0.005% TWEEN-20; C3b fitted to a two-state reaction model, C3c to a 1:1 Langmuir model.

Assay [2] has as its target ISG65 1125G (residues 24-385), expressed with kifunensine and deglycosylated with Endo Hf (T. brucei EATRO1125). The assay can be described thus: SPR; ISG65 1125G immobilised by amine coupling (345 RU) on a CM5 chip; C3d from 4 uM in two-fold serial dilutions; 30 ul/min, 25 C, 20 mM HEPES pH 7.4, 300 mM NaCl, 0.05% TWEEN-20; 1:1 Langmuir model. In general terms: SPR reads the build-up and loss of mass on a sensor chip optically.

The next assay deals with T1, Human complement C3b (human, UniProt P01024).
T1 construct: source: bought: Complement Technology
As to the kind of experiment: SPR; biotinylated ISG65G (CHO, ~800 RU) immobilised on a streptavidin chip (Series S SA); C3b and C3c from 500 nM in two-fold dilutions to 15.6 nM; 30 ul/min, 25 C, 20 mM HEPES pH 7.4, 150 mM NaCl, 0.005% TWEEN-20; C3b fitted to a two-state reaction model, C3c to the 1:1 Langmuir model; averages of three flow paths with different immobilisation levels. Particulars: both partners purified.

In the next assay the target is T2, Human complement C3c (human, UniProt P01024).
T2 construct: source: bought: Complement Technology; copies: + +
The description is as above. The settings on record: both partners purified.

The target of assay [3] is T3, Complement C3d (residues 996-1303 of H. sapiens C3, C1010A) (human, UniProt P01024 996-1303, C1010A).
T3 construct: also called C3d-WT; TED domain
As to the kind of experiment: SPR; ISG65 1125G immobilised by amine coupling (345 RU) on a CM5 chip; C3d from 4 uM in two-fold dilutions; 30 ul/min, 25 C, 20 mM HEPES pH 7.4, 300 mM NaCl, 0.05% TWEEN-20; 1:1 Langmuir model; averages of three repeats on the same flow path. The settings on record: both partners purified.

T2 sequence (P01024 23-667, chain 1 of 3): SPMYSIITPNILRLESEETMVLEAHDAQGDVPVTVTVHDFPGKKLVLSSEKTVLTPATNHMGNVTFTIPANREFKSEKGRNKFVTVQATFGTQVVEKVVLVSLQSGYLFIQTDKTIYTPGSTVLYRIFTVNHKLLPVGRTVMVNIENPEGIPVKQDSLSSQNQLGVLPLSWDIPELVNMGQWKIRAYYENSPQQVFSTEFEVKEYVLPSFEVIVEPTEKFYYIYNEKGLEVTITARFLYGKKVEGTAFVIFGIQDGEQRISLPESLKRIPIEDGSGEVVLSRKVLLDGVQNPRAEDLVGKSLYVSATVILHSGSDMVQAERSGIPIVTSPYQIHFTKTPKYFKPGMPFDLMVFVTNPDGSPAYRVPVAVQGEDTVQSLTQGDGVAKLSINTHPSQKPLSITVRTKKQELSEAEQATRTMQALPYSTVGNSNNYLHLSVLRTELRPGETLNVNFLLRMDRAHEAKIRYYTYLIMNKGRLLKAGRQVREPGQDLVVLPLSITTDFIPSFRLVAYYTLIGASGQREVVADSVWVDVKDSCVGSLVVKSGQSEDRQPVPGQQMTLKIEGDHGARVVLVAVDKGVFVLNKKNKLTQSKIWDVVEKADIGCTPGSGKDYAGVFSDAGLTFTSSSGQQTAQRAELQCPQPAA
T2 sequence (P01024 749-954, chain 2 of 3): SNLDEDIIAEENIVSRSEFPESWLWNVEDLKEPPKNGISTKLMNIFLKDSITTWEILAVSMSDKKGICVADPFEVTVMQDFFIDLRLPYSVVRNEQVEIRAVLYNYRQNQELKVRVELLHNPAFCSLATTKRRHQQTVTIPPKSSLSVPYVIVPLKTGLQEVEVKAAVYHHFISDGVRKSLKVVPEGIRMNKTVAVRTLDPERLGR
T2 sequence (P01024 1321-1663, chain 3 of 3): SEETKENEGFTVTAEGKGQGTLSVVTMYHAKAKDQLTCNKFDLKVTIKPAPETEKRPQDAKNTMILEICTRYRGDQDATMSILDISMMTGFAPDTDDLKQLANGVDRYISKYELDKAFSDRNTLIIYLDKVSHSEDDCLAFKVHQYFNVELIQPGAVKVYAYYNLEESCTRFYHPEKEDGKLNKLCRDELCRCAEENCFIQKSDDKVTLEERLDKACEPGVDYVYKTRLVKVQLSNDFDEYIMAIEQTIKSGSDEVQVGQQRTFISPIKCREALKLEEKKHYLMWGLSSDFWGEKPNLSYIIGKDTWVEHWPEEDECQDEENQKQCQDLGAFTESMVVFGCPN
T3 sequence (P01024 996-1303 C1010A): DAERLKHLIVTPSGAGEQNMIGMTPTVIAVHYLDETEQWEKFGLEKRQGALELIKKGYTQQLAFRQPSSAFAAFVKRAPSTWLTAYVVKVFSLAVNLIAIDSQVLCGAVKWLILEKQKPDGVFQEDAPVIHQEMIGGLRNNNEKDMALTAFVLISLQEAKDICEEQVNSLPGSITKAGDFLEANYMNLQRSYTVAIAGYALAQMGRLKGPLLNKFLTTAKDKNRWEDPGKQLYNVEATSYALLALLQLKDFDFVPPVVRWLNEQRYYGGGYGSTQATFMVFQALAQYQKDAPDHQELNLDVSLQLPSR
T1 sequence (P01024 23-667, chain 1 of 2): as the sequence (P01024 23-667, chain 1 of 3) above
T1 sequence (P01024 749-1663, chain 2 of 2): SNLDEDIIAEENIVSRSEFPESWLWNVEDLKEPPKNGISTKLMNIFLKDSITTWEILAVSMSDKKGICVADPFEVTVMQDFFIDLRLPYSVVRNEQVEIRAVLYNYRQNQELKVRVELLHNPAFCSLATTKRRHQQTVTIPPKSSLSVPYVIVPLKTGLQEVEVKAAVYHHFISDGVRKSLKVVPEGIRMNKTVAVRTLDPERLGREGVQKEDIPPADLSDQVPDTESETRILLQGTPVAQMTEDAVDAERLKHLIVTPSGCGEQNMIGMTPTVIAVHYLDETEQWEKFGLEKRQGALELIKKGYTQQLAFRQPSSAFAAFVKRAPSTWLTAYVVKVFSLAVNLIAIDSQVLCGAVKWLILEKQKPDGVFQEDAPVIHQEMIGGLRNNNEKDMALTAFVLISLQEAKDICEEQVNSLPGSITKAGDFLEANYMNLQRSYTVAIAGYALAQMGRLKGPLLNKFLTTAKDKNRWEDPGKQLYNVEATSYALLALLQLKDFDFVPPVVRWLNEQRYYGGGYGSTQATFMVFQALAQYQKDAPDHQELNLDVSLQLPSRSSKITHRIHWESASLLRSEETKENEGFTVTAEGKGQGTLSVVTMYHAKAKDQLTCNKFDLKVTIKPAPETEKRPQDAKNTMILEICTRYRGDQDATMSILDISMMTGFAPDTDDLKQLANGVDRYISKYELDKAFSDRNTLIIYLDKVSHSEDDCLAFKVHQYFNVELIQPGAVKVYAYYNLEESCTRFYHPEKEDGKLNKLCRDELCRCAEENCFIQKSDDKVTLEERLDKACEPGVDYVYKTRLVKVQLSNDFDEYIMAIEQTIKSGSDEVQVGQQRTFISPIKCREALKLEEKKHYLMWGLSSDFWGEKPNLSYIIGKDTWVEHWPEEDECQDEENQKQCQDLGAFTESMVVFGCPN

For “human complement C3c (domain or fragment)”, the Kd (in general, the equilibrium constant for the complex coming apart) in assay [1] was determined as 750 nM.
On to “human complement C3d (C3 residues 996-1303, C1010A) (from UniProt P01024 996-1303) (domain or fragment)”, for which, in assay [2], the Kd came to 602 nM.
For “human complement C3b (from UniProt P01024 749-1663) (domain or fragment)”, the Kd in assay [1] is 40 nM.

B1: ISG65 1125G (residues 24-385), biotinylated (domain or fragment)
chain: EDNRVPGDKNLTKEGAAALCKMKHLADKVAEKRSQELKDRTQNFAGYIEFELYRIDYWLEKLNGPKGRKDGYAKLSDSDIEKVKEIFDKAKDGIAKQLPEAKKAGEDAEKLHTEVKEAAANARGQDLDDHKQKSTGLYRVLNWYCITKEESHNATPNCDGIQFRNHYLSVNRSAIDCSSTGYEENYDWSANALQVALNSWENVKPKKLESAGSDENCNIGQSSESHPCTMTEEWQTHYKETVKKLKELEGAHEKGRRAHDAMLGYANTAYAVNTKVEQEKPLAEVIAAAKEAGKKGAKIIIPAAAPVTPTNSTKNEDSAPTEHVDRGIATNETQVEVGIDADFDGLLEAAEAAEVTRRHQKTGSGSGSASG
modifications: biotin on the AviTag
notes: also called ISG65G; ISG65 E1125G
For B1, the Kd with Human complement C3b was determined as 67 nM. For the same molecule, in the assay with Human complement C3c, the Kd stood at 391 nM; the koff (commonly the first-order rate constant of dissociation) worked out at 0.008 s⁻¹; the kon – broadly, the rate constant with which the complex forms – was found to be 20000 M⁻¹ s⁻¹.

B2: ISG65 1125G (residues 24-385), expressed with kifunensine and treated with Endo Hf (domain or fragment)
chain: EDNRVPGDKNLTKEGAAALCKMKHLADKVAEKRSQELKDRTQNFAGYIEFELYRIDYWLEKLNGPKGRKDGYAKLSDSDIEKVKEIFDKAKDGIAKQLPEAKKAGEDAEKLHTEVKEAAANARGQDLDDHKQKSTGLYRVLNWYCITKEESHNATPNCDGIQFRNHYLSVNRSAIDCSSTGYEENYDWSANALQVALNSWENVKPKKLESAGSDENCNIGQSSESHPCTMTEEWQTHYKETVKKLKELEGAHEKGRRAHDAMLGYANTAYAVNTKVEQEKPLAEVIAAAKEAGKKGAKIIIPAAAPVTPTNSTKNEDSAPTEHVDRGIATNETQVEVGIDADFDGLLEAAEAAEVTRRHQKTGSGSGSASG
notes: also called ISG65G
On to B2, for which, in assay [3], the Kd amounted to 514 nM, the koff is 0.1 s⁻¹ and the on-rate constant (kon) was determined as 300000 M⁻¹ s⁻¹.
